Reference: the supplement of paper PMC11196671

What was measured:
[1] = BHET released, HPLC; higher = more BHET released; extreme values may be limits of the assay; conditions: 24 h
Protocol: (§1)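 Purified PET hydrolases, 2.5 ug enzyme on 3.5 mg amorphous PET film (aFilm) or crystalline PET powder (cryPow) in 0.5 mL of 50 mM buffer (NaCitrate pH 4.5/5.5, NaPhosphate 6.5/7.5, glycine 8.5/9.5) at 60 or 70 C with shaking for 24 h. Total aromatic product by UV-Vis (260/280 nm, blank-subtracted, normalised per mg enzyme) and individual TPA, MHET, BHET concentrations by UHPLC-DAD at 240 nm; duplicate reactions.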

[2] = terephthalic acid (TPA) released, HPLC; higher = more TPA released; extreme values may be limits of the assay; conditions: 24 h
Protocol: as §1

[3] = PET hydrolysis product formed (TPA+MHET+BHET, UV-Vis) per mg enzyme (mmol/mg enzyme); higher = more PET depolymerisation activity; extreme values may be limits of the assay; conditions: 2 h
Protocol: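 Purified PET hydrolases (His-SUMO cleaved, E. coli C41(DE3) small-scale expression), 2.5 ug enzyme on 3.5 mg amorphous PET film (aFilm) or crystalline PET powder (cryPow) in 0.5 mL of 50 mM buffer (NaCitrate pH 4.5/5.5, NaPhosphate 6.5/7.5, glycine 8.5/9.5) at 60 or 70 C with shaking for 2 h. Soluble aromatic products (TPA+MHET+BHET) were quantified by UV-Vis at 260/280 nm, blank-subtracted against the no-enzyme control, and normalised per mg enzyme; duplicate reactions.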

[4] = as above; conditions: 24 h
Protocol: as §1

ADNPYQRGPDPTNASIEAATGPFAVGTQPIVGASGFGGGQIYYPTDTSQTYGAVVIVPGFISVWAQLAWLGPRLASQGFVVIGIETSTITDLPDPRGDQALAALDWATTRSPVRSRIDRTRLAAAGWSMGGGGLRRAACQRPSLKAIVGMAPWNTEKNWSCVTVPTLFFGGSSDAVASPNDHAKPFYNSITRAEKDYIELCNADHFFPTSANTTMAKYFISWLKRWVDNDTRYTQFLCPGPSTGLFAPVCASMNTCPF [CaPETaseM9]
Conditions	BHET released, [1] [mM]	PET hydrolysis product formed, [3]	PET hydrolysis product formed, [4]	terephthalic acid, [2] [mM]
PET substrate: aFilm, 60 °C, pH 4.5	0	0	0	0.00338
PET substrate: aFilm, 60 °C, pH 5.5	0	0	0.0213	0.0407
PET substrate: aFilm, 60 °C, pH 6.5	0	0.00371	0.0426	0.0535
PET substrate: aFilm, 60 °C, pH 7.5	0	0.0032	0.132	0.165
PET substrate: aFilm, 60 °C, pH 8.5	0	0.0152	0.0575	0.0537
PET substrate: aFilm, 60 °C, pH 9.5	0	0	0.102	0.297
PET substrate: aFilm, 70 °C, pH 4.5	0	0	0	0
PET substrate: aFilm, 70 °C, pH 5.5	0	0	0	0
PET substrate: aFilm, 70 °C, pH 6.5	0	0	0	0
PET substrate: aFilm, 70 °C, pH 7.5	0	0	0	0
PET substrate: aFilm, 70 °C, pH 8.5	0	0	0	0
PET substrate: aFilm, 70 °C, pH 9.5	0	0	0	0.00887
PET substrate: cryPow, 60 °C, pH 4.5	0.00607	0.0116	0.016	0.0214
PET substrate: cryPow, 60 °C, pH 5.5	0	0.0306	0.0317	0.0432
PET substrate: cryPow, 60 °C, pH 6.5	0.00315	0.0384	0.0476	0.0325
PET substrate: cryPow, 60 °C, pH 7.5	0	0.0693	0.0789	0.0946
PET substrate: cryPow, 60 °C, pH 8.5	0	0.0382	0.0427	0.0338
PET substrate: cryPow, 60 °C, pH 9.5	0	0.0436	0.0717	0.336
PET substrate: cryPow, 70 °C, pH 4.5	0	0	0	0
PET substrate: cryPow, 70 °C, pH 5.5	0	0.00828	0.00351	0.0031
PET substrate: cryPow, 70 °C, pH 6.5	0	0.0134	0.0154	0.0109
PET substrate: cryPow, 70 °C, pH 7.5	0	0.0293	0.0196	0.0454
PET substrate: cryPow, 70 °C, pH 8.5	0	0.0155	0.0178	0.0207
PET substrate: cryPow, 70 °C, pH 9.5	0	0.0183	0.0148	0.0926

QTNPYARGPDPTAASLEASAGPFTVRSFTVSRPSGYGAGTVYYPTNAGGTVGAIAIVPGYTARQSSIKWWGPRLASHGFVVITIDTNSTLDQPESRSSQQMAALEQVASLNGTSSSPIYGKVDTARMGVMGWSMGGGGSLISACNNPSLKAAVVQAPWHSSTNFSCVTVPTLIFACENDSIAPVNSSALPIYDSMSENAKQFLEICGGSHSCANTGNSDQALIGKKGVAWMKRFMDNDTRYSTFACENPNSTRVCDFRTANCS [Z1-PETase]
Conditions	BHET released, [1] [mM]	PET hydrolysis product formed, [3]	PET hydrolysis product formed, [4]	terephthalic acid, [2] [mM]
PET substrate: aFilm, 60 °C, pH 4.5	0	0	0	0
PET substrate: aFilm, 60 °C, pH 5.5	0	0	0.00483	0
PET substrate: aFilm, 60 °C, pH 6.5	0	0	0.113	0.227
PET substrate: aFilm, 60 °C, pH 7.5	0	0.032	0.617	0.685
PET substrate: aFilm, 60 °C, pH 8.5	0	0.03625	0.103	0.179
PET substrate: aFilm, 60 °C, pH 9.5	0	0.0733	0.517	1.22
PET substrate: aFilm, 70 °C, pH 4.5	0	0	0	0
PET substrate: aFilm, 70 °C, pH 5.5	0	0	0	0
PET substrate: aFilm, 70 °C, pH 6.5	0	0	0	0
PET substrate: aFilm, 70 °C, pH 7.5	0	0	0.00464	0.0109
PET substrate: aFilm, 70 °C, pH 8.5	0	0	0	0.00307
PET substrate: aFilm, 70 °C, pH 9.5	0	0.00338	0.00672	0.0495
PET substrate: cryPow, 60 °C, pH 4.5	0	0	0	0
PET substrate: cryPow, 60 °C, pH 5.5	0	0	0.0183	0.0408
PET substrate: cryPow, 60 °C, pH 6.5	0.00328	0.0995	0.126	0.114
PET substrate: cryPow, 60 °C, pH 7.5	0	0.135	0.152	0.236
PET substrate: cryPow, 60 °C, pH 8.5	0	0.102	0.117	0.225
PET substrate: cryPow, 60 °C, pH 9.5	0	0.13	0.134	0.72
PET substrate: cryPow, 70 °C, pH 4.5	0	0	0	0
PET substrate: cryPow, 70 °C, pH 5.5	0	0	0	0
PET substrate: cryPow, 70 °C, pH 6.5	0	0.0288	0.0331	0.0337
PET substrate: cryPow, 70 °C, pH 7.5	0	0.0688	0.0691	0.17
PET substrate: cryPow, 70 °C, pH 8.5	0	0.0583	0.0403	0.0464
PET substrate: cryPow, 70 °C, pH 9.5	0	0.0657	0.0592	0.367

SNPYQRGPNPTRSALTADGPFSVATYTVSRLSVSGFGGGVIYYPTGTSLTFGGIAMSPGYTADASSLAWLGRRLASHGFVVLVINTNSRFDGPDSRASQLSAALNYLRTSSPSAVRARLDANRLAVAGHSMGGGGTLRIAEQNPSLKAAVPLTPWHTDKTFNTSVPVLIVGAEADTVAPVSQYAIPFYQNLPSTTPKVYVELCNASHIAPNSDNAAISVYTISWMKLWVDNDTRYRQFLCNVNDPALCDFRTNNRHCQ [LCC-A2]
Conditions	BHET released, [1] [mM]	PET hydrolysis product formed, [3]	PET hydrolysis product formed, [4]	terephthalic acid, [2] [mM]
PET substrate: aFilm, 60 °C, pH 4.5	0	0	0.0551	0.195
PET substrate: aFilm, 60 °C, pH 5.5	0	0.031	0.331	0.792
PET substrate: aFilm, 60 °C, pH 6.5	0	0.061	0.484	1.34
PET substrate: aFilm, 60 °C, pH 7.5	0	0.144	2.22	5.52
PET substrate: aFilm, 60 °C, pH 8.5	0	0.0742	0.195	0.776
PET substrate: aFilm, 60 °C, pH 9.5	0.0275	0.154	0.963	2.661
PET substrate: aFilm, 70 °C, pH 4.5	0	0	0	0.0095
PET substrate: aFilm, 70 °C, pH 5.5	0.00399	0.0749	0.181	0.455
PET substrate: aFilm, 70 °C, pH 6.5	0	0.138	0.361	0.83
PET substrate: aFilm, 70 °C, pH 7.5	0.0146	0.418	2.87	5.42
PET substrate: aFilm, 70 °C, pH 8.5	0	0.09	0.171	0.643
PET substrate: aFilm, 70 °C, pH 9.5	0	0.423	0.934	2.9
PET substrate: cryPow, 60 °C, pH 4.5	0.0062	0.0208	0.0357	0.0633
PET substrate: cryPow, 60 °C, pH 5.5	0	0.0469	0.0766	0.132
PET substrate: cryPow, 60 °C, pH 6.5	0	0.062	0.152	0.232
PET substrate: cryPow, 60 °C, pH 7.5	0	0.127	0.261	0.39
PET substrate: cryPow, 60 °C, pH 8.5	0	0.0645	0.0909	0.174
PET substrate: cryPow, 60 °C, pH 9.5	0	0.0424	0.195	0.789
PET substrate: cryPow, 70 °C, pH 4.5	0	0	0	0.0184
PET substrate: cryPow, 70 °C, pH 5.5	0	0.0282	0.0541	0.0932
PET substrate: cryPow, 70 °C, pH 6.5	0	0.0641	0.139	0.209
PET substrate: cryPow, 70 °C, pH 7.5	0	0.107	0.334	0.639
PET substrate: cryPow, 70 °C, pH 8.5	0	0.0569	0.0995	0.157
PET substrate: cryPow, 70 °C, pH 9.5	0	0.0859	0.205	0.987

QDNPYERGPDPTEDSIEAIRGPFSVATERVSSFASGFGGGTIYYPRETDEGTFGAVAVAPGFTASQGSMSWYGERVASHGFIVFTIDTNTRLDAPGQRGRQLLAALDYLVERSDRKVRERLDPNRLAVMGHSMGGGGSLEATVMRPSLKASIPLTPWHLDKTWGQVQVPTFIIGAELDTIAPVSTHAKPFYESLPSSLPKAYMELCGATHFAPNIPNTTIAKYVISWLKRFVDEDTRYSQFLCPNPTDRAICEYRSTCPY [Cut190*SS]
Conditions	BHET released, [1] [mM]	PET hydrolysis product formed, [3]	PET hydrolysis product formed, [4]	terephthalic acid, [2] [mM]
PET substrate: aFilm, 60 °C, pH 4.5	0	0	0	0
PET substrate: aFilm, 60 °C, pH 5.5	0	0	0	0
PET substrate: aFilm, 60 °C, pH 6.5	0.00205	0	0.0256	0.00808
PET substrate: aFilm, 60 °C, pH 7.5	0.0117	0.00672	0.154	0.0544
PET substrate: aFilm, 60 °C, pH 8.5	0	0	0.0616	0.0241
PET substrate: aFilm, 60 °C, pH 9.5	0	0.0106	0.162	0.319
PET substrate: aFilm, 70 °C, pH 4.5	0	0	0	0
PET substrate: aFilm, 70 °C, pH 5.5	0	0	0	0
PET substrate: aFilm, 70 °C, pH 6.5	0	0	0	0
PET substrate: aFilm, 70 °C, pH 7.5	0.00861	0.00376	0.191	0.142
PET substrate: aFilm, 70 °C, pH 8.5	0	0	0	0
PET substrate: aFilm, 70 °C, pH 9.5	0	0.0215	0.169	0.477
PET substrate: cryPow, 60 °C, pH 4.5	0	0	0	0
PET substrate: cryPow, 60 °C, pH 5.5	0.00623	0	0.0274	0.0115
PET substrate: cryPow, 60 °C, pH 6.5	0.00767	0.0096	0.0533	0.016
PET substrate: cryPow, 60 °C, pH 7.5	0.0058	0.0258	0.0968	0.0676
PET substrate: cryPow, 60 °C, pH 8.5	0	0.0105	0.0772	0.04
PET substrate: cryPow, 60 °C, pH 9.5	0	0.0109	0.0813	0.302
PET substrate: cryPow, 70 °C, pH 4.5	0	0	0	0
PET substrate: cryPow, 70 °C, pH 5.5	0	0	0	0
PET substrate: cryPow, 70 °C, pH 6.5	0	0	0.00998	0.00353
PET substrate: cryPow, 70 °C, pH 7.5	0	0.00904	0.031	0.0546
PET substrate: cryPow, 70 °C, pH 8.5	0	0	0.0112	0.01301
PET substrate: cryPow, 70 °C, pH 9.5	0	0.00521	0.0149	0.0846
